In US10254283:

Experiments:
[1] = tested on: positional scanning peptide library Y-A-X-X-X-X-X-S/T-X-X-X-X-A-G-K-K-biotin

## recombinant full-length MELK
Flag-eIF4B (wild type)
Sequence of Flag-eIF4B (wild type) (chain, as listed by the source): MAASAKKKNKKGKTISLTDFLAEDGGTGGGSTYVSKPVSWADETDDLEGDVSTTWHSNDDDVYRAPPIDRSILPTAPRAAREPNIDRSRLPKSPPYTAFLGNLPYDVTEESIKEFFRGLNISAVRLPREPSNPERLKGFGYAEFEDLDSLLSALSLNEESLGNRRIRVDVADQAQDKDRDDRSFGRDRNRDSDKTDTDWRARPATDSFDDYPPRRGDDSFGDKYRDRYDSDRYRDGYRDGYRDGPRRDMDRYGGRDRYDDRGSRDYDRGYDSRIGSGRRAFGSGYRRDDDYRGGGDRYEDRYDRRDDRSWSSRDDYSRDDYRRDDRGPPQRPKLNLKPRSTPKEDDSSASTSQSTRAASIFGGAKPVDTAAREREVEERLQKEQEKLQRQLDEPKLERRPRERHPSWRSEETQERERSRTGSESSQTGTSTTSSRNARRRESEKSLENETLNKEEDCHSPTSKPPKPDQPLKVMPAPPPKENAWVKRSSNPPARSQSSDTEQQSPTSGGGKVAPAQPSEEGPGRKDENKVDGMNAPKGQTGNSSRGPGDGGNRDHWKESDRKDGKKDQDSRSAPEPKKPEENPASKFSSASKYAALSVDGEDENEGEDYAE
  in vitro kinase assay, phosphorylation of eIF4B at Ser406 (immunoblot): Ser406, but not Ser422, of human eIF4B was readily phosphorylated by full-length MELK or the kinase domain of MELK
  in vitro kinase assay, phosphorylation of eIF4B at Ser422 (immunoblot): MELK does not phosphorylates eIF4B at S422 in vitro
[1]
  positional scanning peptide library screen, in vitro phosphorylation with 32P-ATP: an optimal substrate motif for MELK was identified having a strong selection for arginine at the -3 position relative to serine/threonine
Flag-eIF4B (S406A)
Sequence of Flag-eIF4B (S406A) (chain, as listed by the source S406A): as the sequence (chain, as listed by the source) above, with S406A counted along it
  in vitro kinase assay, phosphorylation of eIF4B at S406 (immunoblot): This phosphorylation was abolished when wild type (wt) eIF4B was replaced with a mutant eIF4B (S406A)
